Measurements reported in a protein production outcome set (Wang et al. 2014).

Assay: label from the status in PepcDB records

Row | Sequence | protein production
1 | MYTNRWEGLDEFVAVAECGQFTAAALRLGVSSSHVSRQIVRLEERLQTRLLYRSTRKVALTEAGQTFLHHCQRLQDGREEALRAVGDLASEPKGLLRMTCAVAYGERFITPLVTRFMELYPQLRVDIELSNDTLDLVHEGMDLAIRLGRLQDSRMVATRLAPRQMYLCASPSYLERYGRPHSLSELSRHNCLIGGSDTWQLQQNGREFSQRVQGNWRCNSGQAVLDAALQGVGLCQLPDYYVQKHLKEGALVSLLEAHQPPNTAVWALYPQQRHLSPKVRKLVDYLKEGLAMQDEYRQ | failed
2 | MGRVYLVGAGPGDPELLTLKAYRLLKEAPVVLYDRLVDERVLALAPGEKVYVGKEEGESEKQEEIHRLLLRHARAHPFVVRLKGGDPMVFGRGGEEVLFLLRHGVPVEVVPGVTSLLASGLPLTHRGLAHGFAAVSGVLEGGGYPDLRPFARVPTLVVLMGVGRRVWIAKELLRLGRDPREPTLFVERASTPKERRVHARLEEVAEGKVEVRPPALWILGEVVRVFAEKEAPVDALALGG | not failed
3 | MSKILLTGASGYIGSHLKNKLKKDHEVIAISRNTHNKTDEENVTWKSADLFDLDEITKVMKDVDTAIYLVHSMMPSAKLTQASFEDMDALLADNFARAAQKQGVKHIVYMSGLIPENDELSAHLRSRLECEKILGDYGIPVSTLRAGLIIGAKGSSYPILKRLVKRLPAMVLPSWAYNKIAPVAIDDVIDGLAALVNRTPKDNEAIDITGPEVMNYKTLIQRTANVLDKRLPMLDLPIIPIIVSRYWVQLISNVPKEMVYPLMNSLTHDMVPHRKRVVSNLSVGNITFEDSVKRALREEQKTSKKKSDSKNSQSFGRMHQEIKDVRAITRFKIPEGYSIKDVTKEYAKFINNITLHLVKGTINEREFNMNLPFINKFILKMERDEADSTEDMVVYNIVGGDLAHSNDGGNARFEFRRIRNTNEGIIALQEYEPTLPWVVYKLTQAKAHKTVMNIFKNKMARLAQQKNVKDETYMSNRVTIGVTVASAFVIGSAVGFQLFKKHQIKKNTMSNAEL | failed
4 | MKKRFCFVIITLLLIFILGSCNKVTSIRRLQELEEGVSNPNTEAELKDAIRKYEKRVDDIMIAEERIGIWYKILGSRYMDQKMYKKALKAFQSALEYYPENQNLFYQAGLAASLTAKNSLDFELTGTDIEKKRYFDLAVSAYKRALEIDPKHAKAVYALSVLYIFELNRPTEAIPILEKITEWEKKPIDHLFLLGAAYYMTGENEKAIAVYERIIEISSSAEKKAKAESNIREIRSSGGR | failed
5 | MEYELLIREAEPKDAAELVAFLNRVSLETDFTSLDGDGILLTSEEMEIFLNKQASSDNQITLLAFLNGKIAGIVNITADQRKRVRHIGDLFIVIGKRYWNNGLGSLLLEEAIEWAQASGILRRLQLTVQTRNQAAVHLYQKHGFVIEGSQERGAYIEEGKFIDVYLMGKLIG | not failed
6 | MIGDMNELLLKSVEVLPPLPDTVSKLRKYVSEANSNIETMKVAEIISSDPLMTAKLLQLANSPYYGFTREITTINQVITLLGVGNIINIVMADSIRDNFKIDVSPYGLNTQNFLKTCNEEATFIANWLNDEDKKLSHLLVPCAMLLRLGIVIFSNFLIQNHKDKDFLAFLNKNENLALAENEFLGVDHISFLGFLLHRWNFDDVLIESICFVRTPHAAREKVKKSAYALAITDHLFAPHDGSSPFNAKAAVALLKEAKTQGINFDLNNLLSKLPNKAKENLNKED | not failed
7 | SARFALTVVRHGETRFNKEKIIQGQGVDEPLSETGFKQAAAAGIFLNNVKFTHAFSSDLMRTKQTMHGILERSKFCKDMTVKYDSRLRERKYGVVEGKALSELRAMAKAAREECPVFTPPGGETLDQVKMRGIDFFEFLCQLILKEADQKEQFSQGSPSNCLETSLAEIFPLGKNHSSKVNSDSGIPGLAASVLVVSHGAYMRSLFDYFLTDLKCSLPATLSRSELMSVTPNTGMSLFIINFEEGREVKPTVQCICMNLQDHLNGLTETR | not failed
8 | MPYEMKFKGVYVLAMEDNSSFKGKIEVGDTVTGVDGKSFKSSEELMNYIKAQKVNQKVTVQFIQDGKAKEATGKLIELPTDKKAGIGIGLTDHTLEHHHHHH | not failed
9 | MMSIKWEQEWDRIYKEQGEVQSEILPTVKVEKDIFKRFGCKKVMDLGCGTGRHTIYLAQNGYQVFAVDISETGIEVTRAKAEKLNLTNIEFAQLDMRNLSVDDNLMDAIMCVWTSGHGTFEDARKNLKEMYRILRLGEILVIDYVSREDENYGKGTEIEKNTFINNVEGEENIPHHYFAKEEIEELYTDFSDVDINPVDYYFTDSYGTRHTIKAFVVIAVK | failed
